# Reference: the supplement of paper PMC11316812
# ± gives the standard deviation of the averaged measurements.
# Columns and labels:
# MCF7 = assay: percentage of EdU-negative (G0-arrested) nuclei per well, 72 h; higher = more G0 arrest; details: reference: sequence is the full UniProt precursor, the tested protein was the secreted form or ectodomain
# hTERT-HMEC = assay: as above; details: reference: sequence is the full UniProt precursor, the tested protein was the secreted form or ectodomain
# [1] = protein concentration 0.0308571 µM
# [2] = protein concentration 0.308571 µM
# [3] = protein concentration 0.0225 µM
# [4] = protein concentration 0.02102 µM
# [5] = protein concentration 0.2102 µM
# [6] = protein concentration 0.0229925 µM
# [7] = protein concentration 0.229925 µM
# 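Note: secreted proteins added to cultured cells, EdU pulse at the end, nuclei found by Hoechst imaging, EdU status from nuclear versus surrounding ring intensity ratio, PBS as neutral control.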
sequence,measurement,setting,value
MARLGNCSLTWAALIILLLPGSLEECGHISVSAPIVHLGDPITASCIIKQNCSHLDPEPQILWRLGAELQPGGRQQRLSDGTQESIITLPHLNHTQAFLSCCLNWGNSLQILDQVELRAGYPPAIPHNLSCLMNLTTSSLICQWEPGPETHLPTSFTLKSFKSRGNCQTQGDSILDCVPKDGQSHCCIPRKHLLLYQNMGIWVQAENALGTSMSPQLCLDPMDVVKLEPPMLRTMDPSPEAAPPQAGCLQLCWEPWQPGLHINQKCELRHKPQRGEASWALVGPLPLEALQYELCGLLPATAYTLQIRCIRWPLPGHWSDWSPSLELRTTERAPTVRLDTWWRQRQLDPRTVQLFWKPVPLEEDSGRIQGYVVSWRPSGQAGAILPLCNTTELSCTFHLPSEAQEVALVAYNSAGTSRPTPVVFSESRGPALTRLHAMARDPHSLWVGWEPPNPWPQGYVIEWGLGPPSASNSNKTWRMEQNGRATGFLLKENIRPFQLYEIIVTPLYQDTMGPSQHVYAYSQEMAPSHAPELHLKHIGKTWAQLEWVPEPPELGKSPLTHYTIFWTNAQNQSFSAILNASSRGFVLHGLEPASLYHIHLMAASQAGATNSTVLTLMTLTPEGSELHIILGLFGLLLLLTCLCGTAWLCCSPNRKNPLWPSVPDPAHSSLGSWVPTIMEEDAFQLPGLGTPPITKLTVLEEDEKKPVPWESHNSSETCGLPTLVQTYVLQGDPRAVSTQPQSQSGTSDQVLYGQLLGSPTSPGPGHYLRCDSTQPLLAGLTPSPKSYENLWFQASPLGTLVTPAPSQEDDCVFGPLLNFPLLQGIRVHGMEALGSF,percentage of EdU-negative,MCF7; [1],27.8 ± 0.38%
same,percentage of EdU-negative,MCF7; [2],29.5 ± 3%
same,percentage of EdU-negative,hTERT-HMEC; [1],5.21 ± 0.22%
same,percentage of EdU-negative,hTERT-HMEC; [2],10.7 ± 1.1%
MARMGLAGAAGRWWGLALGLTAFFLPGVHSQVVQVNDSMYGFIGTDVVLHCSFANPLPSVKITQVTWQKSTNGSKQNVAIYNPSMGVSVLAPYRERVEFLRPSFTDGTIRLSRLELEDEGVYICEFATFPTGNRESQLNLTVMAKPTNWIEGTQAVLRAKKGQDDKVLVATCTSANGKPPSVVSWETRLKGEAEYQEIRNPNGTVTVISRYRLVPSREAHQQSLACIVNYHMDRFKESLTLNVQYEPEVTIEGFDGNWYLQRMDVKLTCKADANPPATEYHWTTLNGSLPKGVEAQNRTLFFKGPINYSLAGTYICEATNPIGTRSGQVEVNITEFPYTPSPPEHGRRAGPVPTAIIGGVAGSILLVLIVVGGIVVALRRRRHTFKGDYSTKKHVYGNGYSKAGIPQHHPPMAQNLQYPDDSDDEKKAGPLGGSSYEEEEEEEEGGGGGERKVGGPHPKYDEDAKRPYFTVDEAEARQDGYGDRTLGYQYDPEQLDLAENMVSQNDGSFISKKEWYV,percentage of EdU-negative,MCF7; [3],25.4 ± 4.4%
same,percentage of EdU-negative,MCF7; protein concentration 0.225 µM,23.9 ± 2.4%
same,percentage of EdU-negative,hTERT-HMEC; [3],4.56 ± 1.1%
same,percentage of EdU-negative,hTERT-HMEC; protein concentration 0.225 µM,4.77 ± 0.62%
MARPGQRWLGKWLVAMVVWALCRLATPLAKNLEPVSWSSLNPKFLSGKGLVIYPKIGDKLDIICPRAEAGRPYEYYKLYLVRPEQAAACSTVLDPNVLVTCNRPEQEIRFTIKFQEFSPNYMGLEFKKHHDYYITSTSNGSLEGLENREGGVCRTRTMKIIMKVGQDPNAVTPEQLTTSRPSKEADNTVKMATQAPGSRGSLGDSDGKHETVNQEEKSGPGASGGSSGDPDGFFNSKVALFAAVGAGCVIFLLIIIFLTVLLLKLRKRHRKHTQQRAAALSLSTLASPKGGSGTAGTEPSDIIIPLRTTENNYCPHYEKVSGDYGHPVYIVQEMPPQSPANIYYKV,percentage of EdU-negative,MCF7; [4],26.6 ± 1.7%
same,percentage of EdU-negative,MCF7; [5],27.1 ± 2.8%
same,percentage of EdU-negative,hTERT-HMEC; [4],5.93 ± 0.36%
same,percentage of EdU-negative,hTERT-HMEC; [5],5.52 ± 0.52%
MARPLCTLLLLMATLAGALASSSKEENRIIPGGIYDADLNDEWVQRALHFAISEYNKATEDEYYRRPLQVLRAREQTFGGVNYFFDVEVGRTICTKSQPNLDTCAFHEQPELQKKQLCSFEIYEVPWEDRMSLVNSRCQEA,percentage of EdU-negative,MCF7; [3],25.1 ± 1.4%
same,percentage of EdU-negative,MCF7; protein concentration 0.225 µM,24.36 ± 0.2%
same,percentage of EdU-negative,hTERT-HMEC; [3],5.17 ± 0.14%
same,percentage of EdU-negative,hTERT-HMEC; protein concentration 0.225 µM,6.38 ± 0.58%
MARPNKFLLWFCCFAWLCFPISLGSQASGGEAQIAASAELESGAMPWSLLQHIDERDRAGLLPALFKVLSVGRGGSPRLQPDSRALHYMKKLYKTYATKEGIPKSNRSHLYNTVRLFTPCTRHKQAPGDQVTGILPSVELLFNLDRITTVEHLLKSVLLYNINNSVSFSSAVKCVCNLMIKEPKSSSRTLGRAPYSFTFNSQFEFGKKHKWIQIDVTSLLQPLVASNKRSIHMSINFTCMKDQLEHPSAQNGLFNMTLVSPSLILYLNDTSAQAYHSWYSLHYKRRPSQGPDQERSLSAYPVGEEAAEDGRSSHHRHRRGQETVSSELKKPLGPASFNLSEYFRQFLLPQNECELHDFRLSFSQLKWDNWIVAPHRYNPRYCKGDCPRAVGHRYGSPVHTMVQNIIYEKLDSSVPRPSCVPAKYSPLSVLTIEPDGSIAYKEYEDMIATKCTCR,percentage of EdU-negative,MCF7; [6],24.683 ± 0.017%
same,percentage of EdU-negative,MCF7; [7],29.8 ± 2.2%
same,percentage of EdU-negative,hTERT-HMEC; [6],4.1 ± 0.078%
same,percentage of EdU-negative,hTERT-HMEC; [7],4.84 ± 1.5%
